Data published in doi:10.1101/2020.12.15.422916.
One block for each substance: values may come before it.

Assays:
[1] = target: C99-derived hexameric Aβ42 (cell-derived, from CHO cells transfected with C99) (human) (UniProt P05067); experiment: SDS-PAGE and western blot of SDS-stable assemblies
[2] = target: C99-derived hexameric Aβ42 (cell-derived, from CHO cells transfected with C99) (human) (UniProt P05067); experiment: GELFrEE 8100 electrophoretic fractionation with western blot
[3] = target: assembly-impaired variant of Aβ42 from CHO cells transfected with vC42 (F19S, G37D) (human); experiment: SDS-PAGE and western blot of SDS-stable assemblies
[4] = target: hexameric Aβ from CHO cells transfected with C99 carrying the Arctic (E22G) FAD mutation (human); experiment: SDS-PAGE and western blot of SDS-stable assemblies
[5] = target: hexameric Aβ from CHO cells transfected with C99 carrying the Dutch (E22Q) FAD mutation (human); experiment: SDS-PAGE and western blot of SDS-stable assemblies
[6] = target: hexameric Aβ from CHO cells transfected with C99 carrying the Flemish (A21G) FAD mutation (human); experiment: SDS-PAGE and western blot of SDS-stable assemblies
[7] = target: hexameric Aβ from CHO cells transfected with C99 carrying the Iowa (D23N) FAD mutation (human); experiment: SDS-PAGE and western blot of SDS-stable assemblies
[8] = target: hexameric Aβ from CHO cells transfected with C99 carrying the Italian (E22K) FAD mutation (human); experiment: SDS-PAGE and western blot of SDS-stable assemblies

stoichiometry N [1]: 6
stoichiometry N [2]: 6
Substance: C99-derived hexameric Aβ42 (cell-derived, from CHO cells transfected with C99) (from UniProt P05067 672-770) (peptide)

stoichiometry N [3]: 2
Substance: assembly-impaired variant of Aβ42 from CHO cells transfected with vC42 (F19S, G37D) (peptide)

stoichiometry N [4]: 6
Substance: hexameric Aβ from CHO cells transfected with C99 carrying the Arctic (E22G) FAD mutation (peptide)

stoichiometry N [5]: 6
Substance: hexameric Aβ from CHO cells transfected with C99 carrying the Dutch (E22Q) FAD mutation (peptide)

stoichiometry N [6]: 6
Substance: hexameric Aβ from CHO cells transfected with C99 carrying the Flemish (A21G) FAD mutation (peptide)

stoichiometry N [7]: 6
Substance: hexameric Aβ from CHO cells transfected with C99 carrying the Iowa (D23N) FAD mutation (peptide)

stoichiometry N [8]: 6
Substance: hexameric Aβ from CHO cells transfected with C99 carrying the Italian (E22K) FAD mutation (peptide)
